{"source": "paper PMC12525728", "about": "“Safety, Pharmacokinetics, Translational and Molecular Mechanistic Insights on the Prostate Cancer Recurrence Suppressor Pseurotin A” (Molecules, 2025)", "origin": "cited, not measured here", "molecules": {"B1": {"name": "evolocumab (antibody, chains of the INN, looked up, V domains shown)", "VH": "EVQLVQSGAEVKKPGASVKVSCKASGYTLTSYGISWVRQAPGQGLEWMGWVSFYNGNTNYAQKLQGRGTMTTDPSTSTAYMELRSLRSDDTAVYYCARGYGMDVWGQGTTVTVSS", "VL": "ESALTQPASVSGSPGQSITISCTGTSSDVGGYNSVSWYQQHPGKAPKLMIYEVSNRPSGVSNRFSGSKSGNTASLTISGLQAEDEADYYCNSYTSTSMVFGGGTKLTVL", "notes": "FDA-approved marketed humanized monoclonal antibody that interferes with the PCSK9-LDLR PPI"}}, "design": "method as in PMID 39441027", "details": "cited from earlier work; for relative % reduction for LDL-C: propensity score matching analysis", "note": "Like-named read-outs stand apart in the source and are kept apart here."}
{"molecule": "B1", "values": [{"measurement": "total cholesterol reduction", "setting": "clinical trials, after 8 dosing weeks", "value": "−26.5", "unit": "%"}, {"measurement": "relative % reduction for LDL-C", "setting": "females", "value": "−42.7", "unit": "%"}, {"measurement": "relative % reduction for LDL-C", "setting": "males", "value": "−54.4", "unit": "%"}]}
